8 molecules from paper PMC2841617, “A Combination of Independent Transcriptional Regulators Shapes Bacterial Virulence Gene Expression during Infection” can be followed below.

Data set [1] concerns CcpA;HPr-Ser46-P (Streptococcus pyogenes (group A Streptococcus; strain of the clone not stated here);Streptococcus pyogenes (group A Streptococcus)). Put plainly: fluorescence polarization. Particulars: CovR FP: 1 nM fluorescein DNA, 20 mM Tris pH 7.5, 50 mM NaCl, 2 mM DTT, 10 ug/mL poly(dI:dC), 25 C, CcpA FP as in ref 30 (buffer not given), with or without …. In general terms: In fluorescence polarisation assays a small probe gives low polarisation when free and higher when bound to something large.

Data set [2] deals with CcpA (Streptococcus pyogenes (group A Streptococcus; strain of the clone not stated here)). Put plainly: fluorescence polarization. The conditions noted are these: CovR FP: 1 nM fluorescein DNA, 20 mM Tris pH 7.5, 50 mM NaCl, 2 mM DTT, 10 ug/mL poly(dI:dC), 25 C, CcpA FP as in ref 30 (buffer not given), with or without ….
Data set [3] concerns the target CovR (unphosphorylated) (Streptococcus pyogenes MGAS5005 (serotype M1)) (UniProt O87527). Put plainly: fluorescence polarization. The conditions noted are these: CovR FP: 1 nM fluorescein DNA, 20 mM Tris pH 7.5, 50 mM NaCl, 2 mM DTT, 10 ug/mL poly(dI:dC), 25 C; CcpA FP as in ref 30 (buffer not given), with or without ….
In data set [4] the target is CovR-P (phosphorylated) (Streptococcus pyogenes MGAS5005 (serotype M1)) (UniProt O87527). Description: fluorescence polarization. The conditions noted are these: CovR FP: 1 nM fluorescein DNA, 20 mM Tris pH 7.5, 50 mM NaCl, 2 mM DTT, 10 ug/mL poly(dI:dC), 25 C; CcpA FP as in ref 30 (buffer not given), with or without ….
Another data set deals with CovR (unphosphorylated) (Streptococcus pyogenes MGAS5005 …, UniProt O87527 1-228). Put plainly: fluorescence polarization; unphosphorylated; CovR FP: 1 nM fluorescein DNA, 20 mM Tris pH 7.5, 50 mM NaCl, 2 mM DTT, 10 ug/mL poly(dI:dC), 25 C; CcpA FP as in ref 30 (buffer not given), with or without 10. Particulars: protein: recombinant, chain copies: 2, label: fluorescein.

In general, Kd refers to the concentration at which binding is half-saturated.

With amyA cre, the Kd (nM (unit implied)) in data set [1] (10 uM HPr-Ser46-P) amounted to 32; in data set [2] (no HPr-Ser46-P), 160. Consider arcA cre, for which the Kd is 18 nM in data set [1] (10 uM HPr-Ser46-P) and 219 nM in data set [2] (no HPr-Ser46-P). For the molecule hasA promoter probe, the Kd in data set [3] was 2200 nM; in data set [4], 640 nM. Consider nga/slo cre, for which the Kd in data set [1] was determined as 42 nM; in data set [2], 674 nM. For speB cre, in that order: 5 nM and 100 nM. Regarding spyCEP cre, the dissociation constant (Kd) turned out to be 33 nM in data set [1] and 257 nM in data set [2].

B1: arcA promoter probe (structured_DNA)
DNA: ACAAAAACCAATTAGAAAGACCCCCTCTTTCTAATTGGTTTTTGT
On to B1, for which the Kd with CovR (unphosphorylated) (hairpin (20 bp stem, C5 loop)) was 637 nM.

B2: amyA promoter probe (structured_DNA)
DNA: CAACCAAACTCTCATTAGAAACCCCCCTTTCTAATGAGAGTTTGGTTG
For B2, in the data set with CovR (unphosphorylated) (hairpin (21 bp stem, C6 loop)), the Kd worked out at 245 nM.
